Assay results taken from publication doi:10.1101/2025.11.10.687524 (bioRxiv, 2025).
Residue numbers refer to the chain shown, from its start. Names and notes keep the numbering of the source. Blank lines part the entries; values can stand above or below the binder they belong to.

Experiments:
[1] = target: BamA(S274C/C690S/C700S) (disulfide-crosslinked SurA–BAM complex 1) (E. coli, UniProt P0A940 21-810, S274C | C690S | C700S); assay: cryo-EM structure
[2] = target: BamA(C690S/C700S) (disulfide-crosslinked SurA–BAM complex 2) (E. coli, UniProt P0A940 21-810, C690S | C700S); assay: cryo-EM structure

B1: SurA(N336C)-His10 (disulfide-crosslinked SurA–BAM complex 1) (natural protein)
chain: APQVVDKVAAVVNNGVVLESDVDGLMQSVKLNAAQARQQLPDDATLRHQIMERLIMDQIILQMGQKMGVKISDEQLDQAIANIAKQNNMTLDQMRSRLAYDGLNYNTYRNQIRKEMIISEVRNNEVRRRITILPQEVESLAQQVGNQNDASTELNLSHILIPLPENPTSDQVNEAESQARAIVDQARNGADFGKLAIAHSADQQALNGGQMGWGRIQELPGIFAQALSTAKKGDIVGPIRSGVGFHILKVNDLRGESKNISVTEVHARHILLKPSPIMTDEQARVKLEQIAADIKSGKTTFAAAAKEFSQDPGSACQGGDLGWATPDIFDPAFRDALTRLNKGQMSAPVHSSFGWHLIELLDTRNVDKTDAAQKDRAYRMLMNRKFSEEAASWMQEQRASAYVKILSN
binding result [1]: binds

binding result [2]: binds
B2: SurA(I297C)-His10 (disulfide-crosslinked SurA–BAM complex 2) (natural protein)
chain: B1 chain with I277C, C316N
